B1: Keratin, type I cytoskeletal 18 (Homo sapiens), P05783 (parent)
chain: MSFTTRSTFSTNYRSLGSVQAPSYGARPVSSAASVYAGAGGSGSRISVSRSTSFRGGMGSGGLATGIAGGLAGMGGIQNEKETMQSLNDRLASYLDRVRSLETENRRLESKIREHLEKKGPQVRDWSHYFKIIEDLRAQIFANTVDNARIVLQIDNARLAADDFRVKYETELAMRQSVENDIHGLRKVIDDTNITRLQLETEIEALKEELLFMKKNHEEEVKGLQAQIASSGLTVEVDAPKSQDLAKIMADIRAQYDELARKNREELDKYWSQQIEESTTVVTTQSAEVGAAETTLTELRRTVQSLEIDLDSMRNLKASLENSLREVEARYALQMEQLNGILLHLESELAQTRAEGQRQAQEYEALLNIKVKLEAEIATYRRLLEDGEDFNLGDALDSSNSMQTIQKTTTRRIVDGKVVSETNDTKVLRH
B2: Chorion-specific transcription factor GCMb (Homo sapiens), O75603 (parent)
chain: MPAAAVQEAVGVCSYGMQLSWDINDPQMPQELALFDQFREWPDGYVRFIYSSDEKKAQRHLSGWAMRNTNNHNGHILKKSCLGVVVCTQACTLPDGSRLQLRPAICDKARLKQQKKACPNCHSALELIPCRGHSGYPVTNFWRLDGNAIFFQAKGVHDHPRPESKSETEARRSAIKRQMASFYQPQKKRIRESEAEENQDSSGHFSNIPPLENPEDFDIVTETSFPIPGQPCPSFPKSDVYKATCDLATFQGDKMPPFQKYSSPRIYLPRPPCSYELANPGYTNSSPYPTLYKDSTSIPNDTDWVHLNTLQCNVNSYSSYERSFDFTNKQHGWKPALGKPSLVERTNHGQFQAMATRPYYNPELPCRYLTTPPPGAPALQTVITTTTKVSYQAYQPPAMKYSDSVREVKSLSSCNYAPEDTGMSVYPEPWGPPVTVTRAASPSGPPPMKIAGDCRAIRPTVAIPHEPVSSRTDEAETWDVCLSGLGSAVSYSDRVGPFFTYNNEDF
partner: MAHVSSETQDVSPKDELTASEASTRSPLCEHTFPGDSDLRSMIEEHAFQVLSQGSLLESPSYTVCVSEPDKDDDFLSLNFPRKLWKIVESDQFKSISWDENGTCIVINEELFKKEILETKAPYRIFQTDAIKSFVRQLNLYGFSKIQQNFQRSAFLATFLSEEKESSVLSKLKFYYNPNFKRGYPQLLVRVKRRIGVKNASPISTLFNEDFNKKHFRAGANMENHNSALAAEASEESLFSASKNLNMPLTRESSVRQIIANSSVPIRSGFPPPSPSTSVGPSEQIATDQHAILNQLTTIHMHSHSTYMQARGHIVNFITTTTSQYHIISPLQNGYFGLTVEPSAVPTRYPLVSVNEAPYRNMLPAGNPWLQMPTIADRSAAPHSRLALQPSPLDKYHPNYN
B3: Lipopolysaccharide-induced tumor necrosis factor-alpha factor (Homo sapiens), Q99732 (parent)
chain: MSVPGPYQAATGPSSAPSAPPSYEETVAVNSYYPTPPAPMPGPTTGLVTGPDGKGMNPPSYYTQPAPIPNNNPITVQTVYVQHPITFLDRPIQMCCPSCNKMIVSQLSYNAGALTWLSCGSLCLLGCIAGCCFIPFCVDALQDVDHYCPNCRALLGTYKRL

Variants of B1 are the subject of the first experiment. As to conditions: with goga2_human GOLGA2, Q08379.
goga2_human GOLGA2, Q08379, sequence (Q08379 whole entry): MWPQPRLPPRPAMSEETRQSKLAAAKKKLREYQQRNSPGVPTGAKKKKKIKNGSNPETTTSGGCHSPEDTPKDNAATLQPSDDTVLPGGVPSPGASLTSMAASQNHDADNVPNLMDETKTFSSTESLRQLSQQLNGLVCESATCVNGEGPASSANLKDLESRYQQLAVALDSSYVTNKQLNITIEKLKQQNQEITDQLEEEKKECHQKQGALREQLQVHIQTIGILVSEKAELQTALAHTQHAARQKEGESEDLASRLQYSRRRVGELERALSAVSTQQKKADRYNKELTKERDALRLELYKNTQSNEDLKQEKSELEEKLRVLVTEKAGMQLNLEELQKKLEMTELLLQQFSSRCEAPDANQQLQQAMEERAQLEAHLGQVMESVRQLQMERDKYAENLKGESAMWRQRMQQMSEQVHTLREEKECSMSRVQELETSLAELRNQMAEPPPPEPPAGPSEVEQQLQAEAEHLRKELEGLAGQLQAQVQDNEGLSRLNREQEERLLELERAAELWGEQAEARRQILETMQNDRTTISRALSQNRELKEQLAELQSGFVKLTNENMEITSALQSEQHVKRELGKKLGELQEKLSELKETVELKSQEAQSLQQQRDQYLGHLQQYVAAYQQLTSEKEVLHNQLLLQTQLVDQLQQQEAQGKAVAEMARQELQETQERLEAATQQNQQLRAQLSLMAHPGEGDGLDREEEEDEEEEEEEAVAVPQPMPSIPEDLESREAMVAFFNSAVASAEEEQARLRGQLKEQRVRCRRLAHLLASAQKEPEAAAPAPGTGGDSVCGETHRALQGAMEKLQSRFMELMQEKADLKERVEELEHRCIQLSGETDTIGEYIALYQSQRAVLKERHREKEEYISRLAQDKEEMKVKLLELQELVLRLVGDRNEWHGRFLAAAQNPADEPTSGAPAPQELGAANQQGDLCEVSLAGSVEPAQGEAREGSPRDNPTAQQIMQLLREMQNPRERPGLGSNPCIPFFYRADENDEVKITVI
In the case of T103A, the “effect of a mutation on the interaction” value is “disrupting interaction strength”.
Turning to G340R, the “effect of a mutation on the interaction” value is listed as “disrupting interaction strength”.
On to H128L, for which the “effect of a mutation on the interaction” value is “with no effect”.

The next experiment covers variants of B1. As to conditions: with hgs_human HGS.
Target sequence in this assay (O14964 whole entry): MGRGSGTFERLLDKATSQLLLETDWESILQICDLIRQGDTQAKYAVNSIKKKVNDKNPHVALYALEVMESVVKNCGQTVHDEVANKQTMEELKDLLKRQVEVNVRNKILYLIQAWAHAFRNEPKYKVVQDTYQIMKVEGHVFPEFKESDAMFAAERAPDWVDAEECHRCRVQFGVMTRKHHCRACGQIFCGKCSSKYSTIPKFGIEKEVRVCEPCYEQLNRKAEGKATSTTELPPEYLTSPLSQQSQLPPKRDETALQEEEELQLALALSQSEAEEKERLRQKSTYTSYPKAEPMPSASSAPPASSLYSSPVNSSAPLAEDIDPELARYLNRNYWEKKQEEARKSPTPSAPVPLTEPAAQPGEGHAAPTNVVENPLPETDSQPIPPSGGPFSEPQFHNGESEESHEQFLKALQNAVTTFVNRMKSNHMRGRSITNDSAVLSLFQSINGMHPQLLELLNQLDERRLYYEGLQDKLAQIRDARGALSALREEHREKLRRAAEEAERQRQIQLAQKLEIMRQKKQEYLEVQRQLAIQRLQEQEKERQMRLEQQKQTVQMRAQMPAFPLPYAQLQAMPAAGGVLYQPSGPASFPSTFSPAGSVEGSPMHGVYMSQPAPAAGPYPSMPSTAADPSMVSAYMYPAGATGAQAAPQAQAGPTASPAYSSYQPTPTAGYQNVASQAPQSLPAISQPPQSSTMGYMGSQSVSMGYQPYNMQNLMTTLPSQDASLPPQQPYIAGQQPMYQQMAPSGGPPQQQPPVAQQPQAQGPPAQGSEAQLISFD
On to T103A, for which the “effect of a mutation on the interaction” value was “disrupting interaction strength”.
In the case of G340R, the “effect of a mutation on the interaction” value is given as “disrupting interaction strength”.
In the case of H128L, the “effect of a mutation on the interaction” value is reported as “with no effect”.

Another experiment covers variants of B1. The following applies: with syce1_human SYCE1, Q8N0S2.
syce1_human SYCE1, Q8N0S2, sequence (Q8N0S2 whole entry): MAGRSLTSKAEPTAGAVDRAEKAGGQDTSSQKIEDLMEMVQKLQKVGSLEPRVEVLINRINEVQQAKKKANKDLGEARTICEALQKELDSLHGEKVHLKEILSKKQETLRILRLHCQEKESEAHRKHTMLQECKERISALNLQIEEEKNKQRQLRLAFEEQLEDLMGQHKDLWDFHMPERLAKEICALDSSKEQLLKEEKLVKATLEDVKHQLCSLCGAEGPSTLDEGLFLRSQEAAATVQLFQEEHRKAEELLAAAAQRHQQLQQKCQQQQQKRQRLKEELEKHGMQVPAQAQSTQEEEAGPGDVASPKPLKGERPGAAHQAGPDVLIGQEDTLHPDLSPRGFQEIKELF
As to T103A, the “effect of a mutation on the interaction” value is on record as “disrupting interaction strength”.
For the variant G340R, the “effect of a mutation on the interaction” value is “with no effect”.
In the case of H128L, the “effect of a mutation on the interaction” value is given as “with no effect”.

The next experiment covers variants of B2. As to conditions: with hsfy1_human HSFY1, Q96LI6.
In the case of G203S, the “effect of a mutation on the interaction” value is “with no effect”.
Consider G63S, for which the “effect of a mutation on the interaction” value was “disrupting interaction strength”.
Regarding R47L, the “effect of a mutation on the interaction” value is recorded as “disrupting interaction strength”.

In a further experiment the parent is B3. The following applies: with UBQLN1, Q9UMX0-2.
UBQLN1, Q9UMX0-2, sequence (Q9UMX0 other isoform, or with tags, fused parts or gaps): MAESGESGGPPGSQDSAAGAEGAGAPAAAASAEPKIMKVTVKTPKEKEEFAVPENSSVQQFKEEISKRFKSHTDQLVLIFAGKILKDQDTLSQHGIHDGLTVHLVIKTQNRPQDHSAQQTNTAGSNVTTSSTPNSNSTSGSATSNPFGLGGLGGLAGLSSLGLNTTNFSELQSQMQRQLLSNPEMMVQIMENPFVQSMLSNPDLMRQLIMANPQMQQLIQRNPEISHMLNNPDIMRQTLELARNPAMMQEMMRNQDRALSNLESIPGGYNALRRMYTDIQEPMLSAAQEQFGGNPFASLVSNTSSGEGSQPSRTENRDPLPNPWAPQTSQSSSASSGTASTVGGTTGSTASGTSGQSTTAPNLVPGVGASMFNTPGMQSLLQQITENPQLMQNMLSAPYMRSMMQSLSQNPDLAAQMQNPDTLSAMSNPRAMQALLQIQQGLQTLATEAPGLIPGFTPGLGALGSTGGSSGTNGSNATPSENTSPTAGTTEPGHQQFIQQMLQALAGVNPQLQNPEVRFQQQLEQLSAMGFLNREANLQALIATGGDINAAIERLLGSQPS
Turning to A111G, the “effect of a mutation on the interaction” value was “disrupting interaction strength”.
Consider I92V, for which the “effect of a mutation on the interaction” value was “with no effect”.

The variants in a further experiment derive from B3. As to conditions: with stam2_human STAM2, O75886.
Consider A111G, for which the “effect of a mutation on the interaction” value is “disrupting interaction strength”.
For the variant I92V, the “effect of a mutation on the interaction” value is “with no effect”.

The next experiment covers variants of B3. As to conditions: with reep6_human REEP6, Q96HR9.
reep6_human REEP6, Q96HR9, sequence (Q96HR9 whole entry): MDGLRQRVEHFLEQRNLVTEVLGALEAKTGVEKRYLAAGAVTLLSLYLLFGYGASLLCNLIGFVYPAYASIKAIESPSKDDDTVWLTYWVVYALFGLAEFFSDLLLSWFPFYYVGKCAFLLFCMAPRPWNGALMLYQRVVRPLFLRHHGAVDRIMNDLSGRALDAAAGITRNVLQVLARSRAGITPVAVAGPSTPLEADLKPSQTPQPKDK
Turning to A111G, the “effect of a mutation on the interaction” value is “disrupting interaction strength”.
Consider I92V, for which the “effect of a mutation on the interaction” value is “with no effect”.

The next experiment covers variants of B3. The following applies: with hgs_human HGS.
Target sequence in this assay (O14964 whole entry): as the sequence (O14964 whole entry) above
For the variant A111G, the “effect of a mutation on the interaction” value is “disrupting interaction strength”.
Regarding I92V, the “effect of a mutation on the interaction” value was “with no effect”.

Variants of B3 are the subject of another experiment. The following applies: with OPTN.
On to A111G, for which the “effect of a mutation on the interaction” value was “disrupting interaction strength”.
With I92V, the “effect of a mutation on the interaction” value was “with no effect”.

For the origin of these results see IntAct's records for PubMed 25910212.
